US20250339504A1, “CANCER VACCINE WITH USE OF COMMON CANCER ANTIGEN COCKTAIL, TCR/CAR-T CELL THERAPEUTIC, COMPANION DIAGNOSTIC METHOD, AND METHOD FOR DIAGNOSING RISK OF CANCER ONSET BY DETECTING CIRCULATING TUMOR CELLS” (National Cancer Center, priority 2022, published 2025)

Assays:
[1] = test system: T2 cells to which an HSP105-derived peptide had been exogenously bound; assay: IFN-γ ELISPOT of HLA-A2-restricted HSP105-specific T cell clones; assay type: cell-based; conditions: coculture with HLA-A2 T2 cells in the presence of the peptide, 20 hours
Protocol: HSP105-HLA-A2 Dextramer was not capable of being sufficiently stained, thus being unavailable for detection of binding T cells. […] CD107a-positive CD8 T cells were selected by single sorting, and cultured on allofeeder cells to establish T cell clones.
The established T cell clones were cocultured with target cells (T2 cells) to which an HSP105-derived peptide had been exogenously bound for 20 hours, and the antigen stimulation-dependent IFN-γ productions were evaluated. The antigen specificities were evaluated by using cells to which a HIV-derived peptide had been bound as a negative control.

[2] = test system: T2 cells to which the peptide had been exogenously bound
Protocol: (§1) Target cells were labeled with a fluorescent dye (calcein) and cocultured with each T cell clone for 4 hours, and the cytotoxic activities against target cells were evaluated on the basis of attenuation of fluorescence as an indicator. […] The cytotoxic activities were evaluated with cancer cell lines endogenously expressing HSP105 as targets. Caski cells and SiHa-A2 cells were used as HSP105-positive cell lines, and an SW620 cell line and HepG2 cell line were used as HSP105-negative cell lines.

Protocol for CasKi cell line: as §1
Protocol for SW620 cell line: as §1
Protocol for SiHaA2 cell line: as §1

B1: 10C9: HLA-A2-restricted T cell clone/TCR recognizing HSP105-derived peptide; SEQ ID NO: 202, 203 (protein, listed as Homo sapiens)
chain 1: MSLSSLLKVVTASLWLGPGIAQKITQTQPGMFVQEKEAVTLDCTYDTSDPSYGLFWYKQPSSGEMIFLIYQGSYDQQNATEGRYSLNFQKARKSANLVISASQLGDSAMYFCAMRDRNTGNQFYFGTGTSLTVIP
chain 2: MGFRLLCCVAFCLLGAGPVDSGVTQTPKHLITATGQRVTLRCSPRSGDLSVYWYQQSLDQGLQFLIQYYNGEERAKGNILERFSAQQFPDLHSELNLSSLELGDSALYFCASSVEVYNEQFFGPGTRLTVL
Q: B1 was tested. Which “antigen-specific IFN-γ production capability” value [1] did it give?
A: strong IFN-γ production capability

Q: What about the “damaging (cytotoxic) activity” value [2] of the same molecule?
A: exhibited damaging activity

Q: And the cytotoxic activity (CasKi cell line)?
A: significant cytotoxic activity

Q: What about the cytotoxic activity (SiHaA2 cell line) of the same molecule?
A: No significant cytotoxic activity

Q: And the cytotoxic activity (SW620 cell line)?
A: No significant cytotoxic activity

B2: 7B9: HLA-A2-restricted T cell clone/TCR recognizing HSP105-derived peptide; SEQ ID NO: 195, 196 (protein, listed as Homo sapiens)
chain 1: METLLGVSLVILWLQLARVNSQQGEEDPQALSIQEGENATMNCSYKTSINNLQWYRQNSGRGLVHLILIRSNEREKHSGRLRVTLDTSKKSSSLLITASRAADTASYFCATDTGGAQKLVFGQGTRLTINP
chain 2: MDSWTLCCVSLCILVAKHTDAGVIQSPRHEVTEMGQEVTLRCKPISGHDYLFWYRQTMMRGLELLIYFNNNVPIDDSGMPEDRFSAKMPNASFSTLKIQPSEPRDSAVYFCASSPDRGETQYFGPGTRLLVL
Q: B2 was tested. Which “antigen-specific IFN-γ production capability” value [1] did it give?
A: strong IFN-γ production capability

Q: What about the cytotoxic activity (CasKi cell line) of the same molecule?
A: significant cytotoxic activity

Q: And the cytotoxic activity (SiHaA2 cell line)?
A: No significant cytotoxic activity

Q: And the cytotoxic activity (SW620 cell line)?
A: No significant cytotoxic activity

B3: 10G7: HLA-A2-restricted T cell clone/TCR recognizing HSP105-derived peptide; SEQ ID NO: 197, 198 (protein, listed as Homo sapiens)
chain 1: MWGVFLLYVSMKMGGTTGQNIDQPTEMTATEGAIVQINCTYQTSGFNGLFWYQQHAGEAPTFLSYNVLDGLEEKGRFSSFLSRSKGYSYLLLKELQMKDSASYLCAVRALREAGTALIFGKGTTLSVSS
chain 2: MDTWLVCWAIFSLLKAGLTEPEVTQTPSHQVTQMGQEVILRCVPISNHLYFYWYRQILGQKVEFLVSFYNNEISEKSEIFDDQFSVERPDGSNFTLKIRSTKLEDSAMYFCASSQNREAFFGQGTRLTVV
Q: For B3, which “antigen-specific IFN-γ production capability” value [1] is on record?
A: strong IFN-γ production capability

Q: And the “damaging (cytotoxic) activity” value [2]?
A: exhibited damaging activity

Q: What about the cytotoxic activity (CasKi cell line) of the same molecule?
A: significant cytotoxic activity

Q: And the cytotoxic activity (SiHaA2 cell line)?
A: No significant cytotoxic activity

Q: What about the cytotoxic activity (SW620 cell line) of the same molecule?
A: No significant cytotoxic activity

B4: 11B9: HLA-A2-restricted T cell clone/TCR recognizing HSP105-derived peptide; SEQ ID NO: 193, 194 (protein, listed as Homo sapiens)
chain 1: MACPGFLWALVISTCLEFSMAQTVTQSQPEMSVQEAETVTLSCTYDTSESDYYLFWYKQPPSRQMILVIRQEAYKQQNATENRFSVNFQKAAKSFSLKISDSQLGDAAMYFCAYRIPGAGSYQLTFGKGTKLSVIP
chain 2: MGTRLLCWVVLGFLGTDHTGAGVSQSPRYKVAKRGQDVALRCDPISGHVSLFWYQQALGQGPEFLTYFQNEAQLDKSGLPSDRFFAERPEGSVSTLKIQRTQQEDSAVYLCASSPGLAGGAQETQYFGPGTRLLVL
Q: With B4 as the molecule, how does the “antigen-specific IFN-γ production capability” value [1] read?
A: largely lower reactivity than the other clones
